Laboratory results: the nanobody polyreactivity screen of Harvey et al. (2022)

Assay: yeast display, Sf9 membrane polyspecificity reagent, FACS + sequencing; frameworks hold sequencing errors
In short: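 A synthetic nanobody library was expressed on Saccharomyces cerevisiae BJ5465 by galactose induction for 36–48 hours. The library was stained for 1 hour at 4 °C with 10% biotinylated, detergent-solubilized Sf9 membrane reagent and enriched with streptavidin microbeads before FACS. Low and high (top ~1%) gates were set on anti-HA fluorescence for expression and streptavidin fluorescence for reagent binding, and each polyreactivity label reflects the gate of origin.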

Row | Sequence | polyreactivity (PSR sort gate)
1 | QVQLVESGGGLVQAGGSLRLTCAASGSTFSVYDMGWYRKAPGKERELVAAIDVTGGSTYYADSVKGRFTISRDNAKNTVSLQMNSLKPEDTAVYYCNAGKCYSLYGMYYWGQGTQVTVSS | low polyreactivity
2 | QVQLVESGGGLVQAGGSLRLSCAASGFTFVPHTMGWYRQAPGKERELVAGINYGVGSTYYADSVKGRFTISRDNAMNTVYLQMNSLKPEDTAVYYCAADIVYLYGLLYYWGQGTQVTVSS | low polyreactivity
3 | QVQLVESGGGLVQAGGSLRLSCAASGRIIYPYVMGWYRQAHGKERELVAAITRSGDRTYYADSVKGRFTISRDNAKNTVYLQMNSLKPEDTAVYYCAATNVRGVYYWGQGTQVTVSS | high polyreactivity
4 | QVQRVESGGGLVQAGGSLRLSCAASGRIFSLNAMGWYRQAPGKEREFVAAISTSSGTTYYADSVKGRFTISRDNAKNTVYLQMNSLKPEDTAVYYCAAKRPSRYYPYRWGFDYWGQGTQVTVSS | high polyreactivity
5 | QVQLVESGGGIVQAGGSLRLICAASGSIFDGYAMGWYRQAPGKERELVAAISASGVRTYYADSVKGRFTISRDNAKNTVYLQMKSLKPEDTAVYYGAAAVYYGQSVWYYYWGQGTQVTVSS | high polyreactivity
6 | QVQLLESGGGLVQAGGSLRLSCAASGLIVSEYAMGWYRQAPGKERELVAAIRSDGGSTYYADSVKGRFTISRDNAKNTVYLQMNSLKPEDTAVYYCNAPYRRSAKFRRYGYDYWGQGTQVTVSS | high polyreactivity
7 | QVQLVESGGGLVQAGGSLRLSCAASGSIFWPYAMGWYRQAPGKERELVAAISSSGTSTYYADSVKGRFTISRDNAKNTVYLQMNSLKPEDTAVYYCAKELFTYPYEYWGQGTQVTVSS | low polyreactivity
8 | QVQLVESGGGLVQAGGSLRLSCAASGSIFGSYAMGWYRQAPGKERELVAAIRWRGGSTYYADSVKGRFTISRDNAKNTVYLQMNSLKPEDTAVYYCNAVTHYPVWVSGVGYDYWGQGTQVTVSS | high polyreactivity
9 | QVQLVESGGGLVQAGGSLRLSCAASGYTFQHYGMGWYRQAPGKERELVAAITRRGSGTYYADSVKGRFTISRDNAKNTVYLQMNRLKPEDTAVYYCAAAVGHGVDYWGQGTQVTVSS | high polyreactivity
10 | QVQLVESGGGLVQAGGSLRLSCAASGFTYSRYAMGWYRQAPGKERELVAAIRLRDGITYYADSVKGRITISRDNAKNTVYLQMNRLKPEDTAVYYCNAVNRTPVSQLDYWGQGTQVTVSS | high polyreactivity
11 | QVQLVESGGGLVQAGGSLRLSCAASGSIFPGYAMGWSRQAPEKERELVAAISRRGGSTYYADSVKGRFTISRDNAKNTVYLQMNSLKPEDNAVYYCAKDGTGAGTYDYWGQGTKVTVSS | low polyreactivity
12 | QVQLVESGGGLVQAGGSLRLSCAASGSIFQGNAKGGYRQAPGKERELVAGISDGGSTYYADSVKGRFTISRDNAKNTVYLQMNSLKPEDTAVYYCAAESEQWYSYVLSYDWEYDYWGQGTQVTVSS | low polyreactivity
13 | QVQLVESGGGLVQAGGSLRLSCSASGSIFWYNAMGWYRHAPGKERELVAAISRSGSRTYYADSVKGRFTISRDYAKNTVYLQMNSLKPEDTAVYYCARVRPRVLYFVLHYDYWGQGTQVTVSS | high polyreactivity
14 | QVQLVESGGGLVQAGGSLRLSCAASGRIFTAYYAMGWYRQEPGKESELVASISSSGTSTYADSVKGRFTISRDNAKNSVYLQMISLKPEDTAVYYCATRKLRTRRYDYGYWGQGTQVTVSS | low polyreactivity
15 | QVQLVESGGGLVQAGGSLRLSCAASGYTSSLNAMGWYRQAPGKERELVARITTDGTSTYYADSVKGRFTISRDNANNTVYLQMNSLKPEDTAVYYCAAEYSYVQFGFGYWGQGTQVTVSS | low polyreactivity
16 | QVQLVESGGGLVQAGGSLRLSCAASGRIFYSNAIGWYRQAPGKERELVAAIRDSAGSTRYADSVKGRFTISRDNAKNTVYLQMNSLKPVDTAVYYCNKDYVSIYFEYLDDYWGQGTQVTVSS | low polyreactivity
17 | QDQLVEAGGGLVQAGGSLRLSCAASRRTFWKYARGWYIQAPGKERELVAAISSSGGNTYYADSVKGRFTISRDNAKNTVYLQMNRLKPEDTAVYYCAAPLPRGAYFYWGQGTQVTVSS | high polyreactivity
18 | QVQLVESGGGLVQAGGSLRLICAASGFTFVANAMGWYRQAPGKERELVAVIDWDDGSTYYADSVKGRFTISRDNAKNTVYLQMYSLKPEDTAVYYCARDVYASPRLYTSRYNYWGQGTQVTVSS | low polyreactivity
19 | QVQLVESGGGLVQAGGSLRLSCAASGSTFTIYAMGWYRQAPGKERELVAAITFSGDRTYYADSVKGRFTISRDNAKNTVFLQMNSLKPEDTAVYYCAAKSSTKQRKYYWGQGTQVTVSS | high polyreactivity
20 | QVQLVESGGGLVQAGGSLRLSCAASGIIFSWYDMGWYRQAPGKERELVAAISSGDRTNYADSVKGRFTISRDNAKNTVYLQMNSLKPEDTAVYYCAADLFPIAGEYDYWGQGTQVTVSS | high polyreactivity
21 | QVQLVESGVGIVQAGCSLRLSCAASGSIFRYYAMGLYRQAPGKERELVAGITASTGRTYYADSVKGRFTISRDNAKNTVYLQMNSLKPEDTAVYYCAARSRYYEYDYWGQGTQVTVSS | low polyreactivity
22 | QVQLVESGGGLVQAGGSLRLSCAASGIIFYDYAMGWYRQAPGKERELVAAISTDAGSTYYADSVKGRFTISRDNAKNTVYLQMNSLKPEDTAVYYCNADEHSYSVSWDYEYDYWGQGTQVTVSS | high polyreactivity

Row | Sequence | polyreactivity (PSR sort gate)
23 | QVQLVESGGGLVQAGGSLRLSCAASGFTFHYNAMGWYRQAPGKERELVAAISRSGGITNYADSVKGRFTISRDNAKNTVYLQMNSLKPEDTAVYYCAAYLVVRIRYTQRYDYWGQGTQVTVSS | low polyreactivity
24 | QVQLVESGGGLVQAGGSLRLSCAASGFTIYGYAMGWYSQAPGKERELVAAISSSGGRTYYADSVKGRCTISRDNAKNTVYLQMNSLKPEDTAVYYCAAEYRSYRDGYWGQGTQVTVSS | high polyreactivity
25 | QVQLVESGGGLFQAGGSLRLSCAASGRTFGKNAMGWYRQAPGKEREFVAAITSRGGSTYYADSVKGRFTISRDNAKNTVYLQMNSLNPEDTGVYYCNREYKRPSQRNEHFYCGQGTQVTVSS | low polyreactivity
26 | QVQLVESGGGLVQAGGSLRLSCAASGSIFLRYAMGWSRQARGKERELVAAITSSGRTNYADPVKGRFTISRDNAKNTVYLQMNSLKPEDTAVYYCAAVSYRQGVYRRNRYYYWGQGTQVTVSS | high polyreactivity
27 | QVQLEESGGCLVQAGGRIRLSCAASGLTFHRYAMGWYRQAPGKERELVAAINYSGGRTYYADSVKGRFTISRDNATNNVYLQMNSLKPEDTAVYYCAAPSASGYYWGQGNQVTVSS | high polyreactivity
28 | QVQLVESGGGLVQAGGSLRLSCAASGLIFSYYVMGWYRQAPGKERELVAAISRIGGSTYYADSVKGRFTISRDNAKNTVYLQMNSLKPEDTAVYYCAAYDLSPGSLTGGYYWGQGTQVTVSS | high polyreactivity
29 | QVQLVESGGGLVQAGGSLRLSCAASGSIFYGNAMGRYRQAPGKERELVAGITGYGSPTYYADSVKGRFTISRDNAKNTVYLQMNSLKPEVTAVYYCARLTRTSRGMYDYWGQGTQVTVSS | high polyreactivity
30 | QVQLVDSGGGLVQAGGSLRLSCAASGFIFVRYAMGWYRQAPGKERELVAAISWSGARTYYADSVKGRFTISRDNAKNTVYLQFNSLKPEDSAVYYCAADSLDAGYYGYDYWGQGTQVGVSS | high polyreactivity
31 | QVQLVESGGGLVQAGGSLRLSCAASGSIFELNAMGWYRQAPGKERELVAAITSSGSSTYYADSVKGRFTISRDNAKNTVYLQMNSLKPEDTAVYYCFRPHDYWGQGTQVTVTS | low polyreactivity
32 | QVQLVESGGGLVQAGGSLRLSSAGSGSTLGFNAMGWYRQAPGKEREFVAGNSASGSSTYFADSVKGRFTISRDNAKNTVYLHINSLKTEDSAVYYFYARVRVRLGRNWSTYYYWGQGTEVTVSS | high polyreactivity
33 | QVQLVESGGGLVQAGGSLRLSCAASGYTFDKYAMGWYRPAPGKERELVAAITDGGSTNYADSVKGRFTISRDNAKNTVYLQMNSLKPEDTAVYYCNDELQWEVYYDRYPEYDHWGQGTQVTVSS | low polyreactivity
34 | QVQLVESGGGLVQAGGSLRLSCAATARNFYRYAMAWYRQAPGKERELVARITSAGSTDYADSVKGRFTISRDNAKNTVYLQMNSLKPEDTAVYYCAAFGFSYRTFWYDYWGQGTQVTVSS | high polyreactivity
35 | QVQLVESGRGIVQAGGSLRLSCAASGSTFAVNAMGWYRQAPGKERELVAAISTGGSTNYADSVKGRFTISRDNEKNTVFLQMNSLKPEDTAVYYCAAEHPVTYPTSKFDYWGQGTQVTVSS | low polyreactivity
36 | QVQLVESGGGLVQAGGSLLLSCAASAFTSDVYAMGWYRQAPGKETELVADISARGGSTYYADSVKGRFTISRDNAKNTVYLQMNSLKPEDTAVYYCAAEVYVGTIGFYADFFYYPVYYWVQGTQVTVSS | low polyreactivity
37 | QVQHVESGGGLVQAGGSLRLSCAASGSTFTYNAMGWYRQAPGKEREKVASISSGTTTYYADSVKGRFTISRDNAKNTVYLQMNSLKPEDTAVYYCAVDSWSRVQGWLAHNYDYWGQGTLVTVSS | low polyreactivity
38 | QVQLVESGGGLVQAGGSLRLSCAASGFIFRKYAMGWYRHAPGKETELVAAITRNGGRTYYADSVKGRFTISRDNAKYTVYLQMNSLKPEDTAVFYCNRRGQYTFWPIHEYWGQGTQVTVSS | high polyreactivity
39 | QVQLVESGGGLVQAGGSLRLSCAASGSIFKYYAMGWYRQAPGKERELVAAISVRGSRTYYADSVKGRFTISRDNAKNTVYLQMNSLKPEDTAVYYCAADGGYIPPYGYDYWGQGTQVTVSS | high polyreactivity
40 | QVQLVESGGGLVQAGGSLRLSCAASGRIFIWYGMGCYRQAPGKERELVADISSTGSTNYADSVKGRFTISRDNAKNTVYLQMNSLKPEDTAVYYCAADPETPYYTTYDYDYWGQGTQVTVSS | low polyreactivity
41 | QVQLLESGGGLVQAGGSLRESCAASGSMFSHNTMGWYRQAPGKERELVATINWRATYYADSVKGRFTISRDNAKNTVYLQMNSLKPEDTAGYYCNKDRQRYGEDYWGQGTQVTVSS | high polyreactivity
42 | QVQLVESGGGLVQAGGSLRLSCAASGVIFKPSAMGWYRQAPGKERELVASISTGARTYYADSVKGRFTISRDTAKNTVYLQLNSLKPEDTAVYYCAAAYSRWITRYDYWGQGTQVTVSS | high polyreactivity
43 | QVQLVESGGGLVQAGGSIRLSCAASGFTITHYAMGWYRQAPGKERELVAAISASGGSTYYADSVKGRFTISRDNAKYTVYVQMNSLKPEDTAVYYCAATWDYRRGRYPYDYWGQGTQVTVSS | high polyreactivity
